Consider 23 molecules from patent EP4717706A1.

The target in the experiment is VLP2 (virus-like particles, capsid protein particles of AAV serotype 2) (AAV serotype 2 (AAV2)) (UniProt P03135). Kind of experiment: ELISA on immobilised VLP2 (culture supernatant, anti-His detection); A450 after 1:1 0.5 M NaOH, 30 min, 30°C divided by A450 untreated. Background: ELISA stands for enzyme-linked immunosorbent assay.
UniProt P03135, sequence (P03135 whole entry): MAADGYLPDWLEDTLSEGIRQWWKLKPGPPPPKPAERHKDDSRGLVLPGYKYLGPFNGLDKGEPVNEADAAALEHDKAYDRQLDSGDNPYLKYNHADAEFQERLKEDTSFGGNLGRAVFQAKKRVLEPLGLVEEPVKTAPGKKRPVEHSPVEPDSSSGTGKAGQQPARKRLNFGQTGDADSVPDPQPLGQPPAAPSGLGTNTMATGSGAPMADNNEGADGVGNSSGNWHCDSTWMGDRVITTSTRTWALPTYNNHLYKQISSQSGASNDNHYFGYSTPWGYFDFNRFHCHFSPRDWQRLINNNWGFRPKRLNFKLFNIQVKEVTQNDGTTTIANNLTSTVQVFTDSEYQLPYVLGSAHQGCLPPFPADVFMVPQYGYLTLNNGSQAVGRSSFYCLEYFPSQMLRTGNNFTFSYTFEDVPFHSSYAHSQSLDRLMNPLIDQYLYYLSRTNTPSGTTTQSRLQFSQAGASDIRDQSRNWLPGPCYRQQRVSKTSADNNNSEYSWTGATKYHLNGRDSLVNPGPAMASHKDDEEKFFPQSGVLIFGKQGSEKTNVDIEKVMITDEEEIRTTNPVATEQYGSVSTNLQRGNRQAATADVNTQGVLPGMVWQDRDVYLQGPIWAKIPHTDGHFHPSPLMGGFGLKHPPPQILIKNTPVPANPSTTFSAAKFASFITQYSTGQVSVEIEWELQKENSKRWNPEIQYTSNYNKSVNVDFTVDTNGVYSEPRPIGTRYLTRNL

B1: AVR21 with I319N, Y377F (receptor)
chain: MGSAGESDQNTLPKHEAQLNVYVLLVPPKGEASTYDWQLITHPRDYSGEMEGEHSQILKLSNLTPGLFEYRAVVEGQNAHSEGYVNVTVEPEPRKNRPPIAIVSPQFQEISLPTTSTVIDGSQSTDDDKIVQYHWEELKGPLREEKISEDTAILKLSQLVPGNYTFRLTVVDTDGATDSTTADLTVNKAVDHHHHHH
On to B1, for which the Remaining activity [%] came to 45.1%.

B2: AVR21 with E360D, H389R (receptor)
chain: MGSAGESDQITLPKHEAQLNVYVLLVPPKGEASTYDWQLITHPRDYSGEMDGEHSQILKLSNLTPGLYEYRAVVEGQNARSEGYVNVTVEPEPRKNRPPIAIVSPQFQEISLPTTSTVIDGSQSTDDDKIVQYHWEELKGPLREEKISEDTAILKLSQLVPGNYTFRLTVVDTDGATDSTTADLTVNKAVDHHHHHH
B2 yielded a Remaining activity [%] of 46.7%.

B3: AVR21 with Y344F, T350A, Y377N (receptor)
chain: MGSAGESDQITLPKHEAQLNVYVLLVPPKGEASTFDWQLIAHPRDYSGEMEGEHSQILKLSNLTPGLNEYRAVVEGQNAHSEGYVNVTVEPEPRKNRPPIAIVSPQFQEISLPTTSTVIDGSQSTDDDKIVQYHWEELKGPLREEKISEDTAILKLSQLVPGNYTFRLTVVDTDGATDSTTADLTVNKAVDHHHHHH
In the case of B3, the Remaining activity [%] was determined as 34.4%.

B4: AVR21 with T397A (receptor)
chain: MGSAGESDQITLPKHEAQLNVYVLLVPPKGEASTYDWQLITHPRDYSGEMEGEHSQILKLSNLTPGLYEYRAVVEGQNAHSEGYVNVAVEPEPRKNRPPIAIVSPQFQEISLPTTSTVIDGSQSTDDDKIVQYHWEELKGPLREEKISEDTAILKLSQLVPGNYTFRLTVVDTDGATDSTTADLTVNKAVDHHHHHH
As for B4, the Remaining activity [%] came out at 40.4%.

B5: AVR21 with Q347K, N472K (receptor)
chain: MGSAGESDQITLPKHEAQLNVYVLLVPPKGEASTYDWKLITHPRDYSGEMEGEHSQILKLSNLTPGLYEYRAVVEGQNAHSEGYVNVTVEPEPRKNRPPIAIVSPQFQEISLPTTSTVIDGSQSTDDDKIVQYHWEELKGPLREEKISEDTAILKLSQLVPGKYTFRLTVVDTDGATDSTTADLTVNKAVDHHHHHH
Molecule B5 returned a Remaining activity [%] of 58.9%.

B6: AVR21 with L321Q, T343S (receptor)
chain: MGSAGESDQITQPKHEAQLNVYVLLVPPKGEASSYDWQLITHPRDYSGEMEGEHSQILKLSNLTPGLYEYRAVVEGQNAHSEGYVNVTVEPEPRKNRPPIAIVSPQFQEISLPTTSTVIDGSQSTDDDKIVQYHWEELKGPLREEKISEDTAILKLSQLVPGNYTFRLTVVDTDGATDSTTADLTVNKAVDHHHHHH
Consider B6, for which the Remaining activity [%] came to 50.4%.

B7: AVR21 with I(V)382I (receptor)
chain: MGSAGESDQITLPKHEAQLNVYVLLVPPKGEASTYDWQLITHPRDYSGEMEGEHSQILKLSNLTPGLYEYRAIVEGQNAHSEGYVNVTVEPEPRKNRPPIAIVSPQFQEISLPTTSTVIDGSQSTDDDKIVQYHWEELKGPLREEKISEDTAILKLSQLVPGNYTFRLTVVDTDGATDSTTADLTVNKAVDHHHHHH
Regarding B7, the Remaining activity [%] amounted to 32.8%.

B8: AVR21 with K(N)371S, E453D, S466T (receptor)
chain: MGSAGESDQITLPKHEAQLNVYVLLVPPKGEASTYDWQLITHPRDYSGEMEGEHSQILKLSSLTPGLYEYRAVVEGQNAHSEGYVNVTVEPEPRKNRPPIAIVSPQFQEISLPTTSTVIDGSQSTDDDKIVQYHWEELKGPLRDEKISEDTAILKLTQLVPGNYTFRLTVVDTDGATDSTTADLTVNKAVDHHHHHH
The molecule B8 came in with a Remaining activity [%] of 57.3%.

B9: AVR21 with K338R, A461P (receptor)
chain: MGSAGESDQITLPKHEAQLNVYVLLVPPRGEASTYDWQLITHPRDYSGEMEGEHSQILKLSNLTPGLYEYRAVVEGQNAHSEGYVNVTVEPEPRKNRPPIAIVSPQFQEISLPTTSTVIDGSQSTDDDKIVQYHWEELKGPLREEKISEDTPILKLSQLVPGNYTFRLTVVDTDGATDSTTADLTVNKAVDHHHHHH
Take B9: the Remaining activity [%] amounted to 36.4%.

B10: AVR21 with D345G, E454D (receptor)
chain: MGSAGESDQITLPKHEAQLNVYVLLVPPKGEASTYGWQLITHPRDYSGEMEGEHSQILKLSNLTPGLYEYRAVVEGQNAHSEGYVNVTVEPEPRKNRPPIAIVSPQFQEISLPTTSTVIDGSQSTDDDKIVQYHWEELKGPLREDKISEDTAILKLSQLVPGNYTFRLTVVDTDGATDSTTADLTVNKAVDHHHHHH
B10 displayed a Remaining activity [%] of 61.7%.

B11: AVR21 with E340G (receptor)
chain: MGSAGESDQITLPKHEAQLNVYVLLVPPKGGASTYDWQLITHPRDYSGEMEGEHSQILKLSNLTPGLYEYRAVVEGQNAHSEGYVNVTVEPEPRKNRPPIAIVSPQFQEISLPTTSTVIDGSQSTDDDKIVQYHWEELKGPLREEKISEDTAILKLSQLVPGNYTFRLTVVDTDGATDSTTADLTVNKAVDHHHHHH
For the molecule B11, the Remaining activity [%] came to 28.1%.

B12: AVR21 with E384D, V396E (receptor)
chain: MGSAGESDQITLPKHEAQLNVYVLLVPPKGEASTYDWQLITHPRDYSGEMEGEHSQILKLSNLTPGLYEYRAVVDGQNAHSEGYVNETVEPEPRKNRPPIAIVSPQFQEISLPTTSTVIDGSQSTDDDKIVQYHWEELKGPLREEKISEDTAILKLSQLVPGNYTFRLTVVDTDGATDSTTADLTVNKAVDHHHHHH
The molecule B12 had a Remaining activity [%] of 45.3%.

B13: AVR21 with L376P (receptor)
chain: MGSAGESDQITLPKHEAQLNVYVLLVPPKGEASTYDWQLITHPRDYSGEMEGEHSQILKLSNLTPGPYEYRAVVEGQNAHSEGYVNVTVEPEPRKNRPPIAIVSPQFQEISLPTTSTVIDGSQSTDDDKIVQYHWEELKGPLREEKISEDTAILKLSQLVPGNYTFRLTVVDTDGATDSTTADLTVNKAVDHHHHHH
B13 came in with a Remaining activity [%] of 42.6%.

B14: AVR21 with E378G (receptor)
chain: MGSAGESDQITLPKHEAQLNVYVLLVPPKGEASTYDWQLITHPRDYSGEMEGEHSQILKLSNLTPGLYGYRAVVEGQNAHSEGYVNVTVEPEPRKNRPPIAIVSPQFQEISLPTTSTVIDGSQSTDDDKIVQYHWEELKGPLREEKISEDTAILKLSQLVPGNYTFRLTVVDTDGATDSTTADLTVNKAVDHHHHHH
In the case of B14, the Remaining activity [%] is 58%.

B15: AVR21 with L321Q (receptor)
chain: MGSAGESDQITQPKHEAQLNVYVLLVPPKGEASTYDWQLITHPRDYSGEMEGEHSQILKLSNLTPGLYEYRAVVEGQNAHSEGYVNVTVEPEPRKNRPPIAIVSPQFQEISLPTTSTVIDGSQSTDDDKIVQYHWEELKGPLREEKISEDTAILKLSQLVPGNYTFRLTVVDTDGATDSTTADLTVNKAVDHHHHHH
Molecule B15 returned a Remaining activity [%] of 34.2%.

B16: AVR21 with L369S (receptor)
chain: MGSAGESDQITLPKHEAQLNVYVLLVPPKGEASTYDWQLITHPRDYSGEMEGEHSQILKSSNLTPGLYEYRAVVEGQNAHSEGYVNVTVEPEPRKNRPPIAIVSPQFQEISLPTTSTVIDGSQSTDDDKIVQYHWEELKGPLREEKISEDTAILKLSQLVPGNYTFRLTVVDTDGATDSTTADLTVNKAVDHHHHHH
As for B16, the Remaining activity [%] worked out at 51.4%.

B17: AVR21 with Q365R, V(A)381T, K497E (receptor)
chain: MGSAGESDQITLPKHEAQLNVYVLLVPPKGEASTYDWQLITHPRDYSGEMEGEHSRILKLSNLTPGLYEYRTVVEGQNAHSEGYVNVTVEPEPRKNRPPIAIVSPQFQEISLPTTSTVIDGSQSTDDDKIVQYHWEELKGPLREEKISEDTAILKLSQLVPGNYTFRLTVVDTDGATDSTTADLTVNEAVDHHHHHH
As for B17, the Remaining activity [%] came out at 42%.

B18: AVR21 with L367P (receptor)
chain: MGSAGESDQITLPKHEAQLNVYVLLVPPKGEASTYDWQLITHPRDYSGEMEGEHSQIPKLSNLTPGLYEYRAVVEGQNAHSEGYVNVTVEPEPRKNRPPIAIVSPQFQEISLPTTSTVIDGSQSTDDDKIVQYHWEELKGPLREEKISEDTAILKLSQLVPGNYTFRLTVVDTDGATDSTTADLTVNKAVDHHHHHH
The molecule B18 registered a Remaining activity [%] of 35.7%.

B19: AVR21 with L376P, P402S (receptor)
chain: MGSAGESDQITLPKHEAQLNVYVLLVPPKGEASTYDWQLITHPRDYSGEMEGEHSQILKLSNLTPGPYEYRAVVEGQNAHSEGYVNVTVEPESRKNRPPIAIVSPQFQEISLPTTSTVIDGSQSTDDDKIVQYHWEELKGPLREEKISEDTAILKLSQLVPGNYTFRLTVVDTDGATDSTTADLTVNKAVDHHHHHH
In turn, B19 registered a Remaining activity [%] of 35.1%.

B20: AVR21 with L367P, V412A (receptor)
chain: MGSAGESDQITLPKHEAQLNVYVLLVPPKGEASTYDWQLITHPRDYSGEMEGEHSQIPKLSNLTPGLYEYRAVVEGQNAHSEGYVNVTVEPEPRKNRPPIAIASPQFQEISLPTTSTVIDGSQSTDDDKIVQYHWEELKGPLREEKISEDTAILKLSQLVPGNYTFRLTVVDTDGATDSTTADLTVNKAVDHHHHHH
Molecule B20 had a Remaining activity [%] of 35.8%.

B21: AVR21 with I366F, D435A (receptor)
chain: MGSAGESDQITLPKHEAQLNVYVLLVPPKGEASTYDWQLITHPRDYSGEMEGEHSQFLKLSNLTPGLYEYRAVVEGQNAHSEGYVNVTVEPEPRKNRPPIAIVSPQFQEISLPTTSTVIDGSQSTADDKIVQYHWEELKGPLREEKISEDTAILKLSQLVPGNYTFRLTVVDTDGATDSTTADLTVNKAVDHHHHHH
B21: the Remaining activity [%] came out at 38.4%.

B22: AVR21 with T343A, K(N)371D (receptor)
chain: MGSAGESDQITLPKHEAQLNVYVLLVPPKGEASAYDWQLITHPRDYSGEMEGEHSQILKLSDLTPGLYEYRAVVEGQNAHSEGYVNVTVEPEPRKNRPPIAIVSPQFQEISLPTTSTVIDGSQSTDDDKIVQYHWEELKGPLREEKISEDTAILKLSQLVPGNYTFRLTVVDTDGATDSTTADLTVNKAVDHHHHHH
In the case of B22, the Remaining activity [%] is 40.5%.

B23: AVR21 with F(Y)379S (receptor)
chain: MGSAGESDQITLPKHEAQLNVYVLLVPPKGEASTYDWQLITHPRDYSGEMEGEHSQILKLSNLTPGLYESRAVVEGQNAHSEGYVNVTVEPEPRKNRPPIAIVSPQFQEISLPTTSTVIDGSQSTDDDKIVQYHWEELKGPLREEKISEDTAILKLSQLVPGNYTFRLTVVDTDGATDSTTADLTVNKAVDHHHHHH
Molecule B23 showed a Remaining activity [%] of 54.9%.
